Assay results taken from patent US20240252628A1.

Biological target: GDF8, O14793
Test: SPR (Biacore), anti-Fc capture of receptor; very low signal
Conditions: remark: other sources report otherwise

Chain of GDF8, O14793 (O14793 267-375 limits assumed): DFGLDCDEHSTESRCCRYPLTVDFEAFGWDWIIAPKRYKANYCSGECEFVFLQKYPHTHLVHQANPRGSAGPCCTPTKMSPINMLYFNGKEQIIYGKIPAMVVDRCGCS

B1: ALK4-Fc homodimer, P36896 24-126 (Fc fusion, not shown: a dimerising Fc or GST)
chain: SGPRGVQALLCACTSCLQANYTCETDGACMVSIFNLDGMEHHVRTCIPKVELVPAGKPFYCLSSEDLRNTHCCYTDYCNRIDLRVPSGHLKEPEHPSMWGPVE
Binder B1 has a Kd of 15 nM, a koff of 0.0019 s⁻¹ and a kon of 130000 M⁻¹ s⁻¹.
